What was measured:
[1] = target: β2-RF (full-length human BK β2 subunit with C-terminal mCherry-FLAG) (human) (UniProt Q9Y691); assay: pull-down + SEC; as a3 but plasmid weight ratio 1:0.2:1.8 (TR2)
[2] = target: hSlo1EM-TS (modified human Slo1 BK α subunit with a C-terminal twin-strep tag) (human) (UniProt Q12791); assay: as above
[3] = target: β2-RF (full-length human BK β2 subunit with C-terminal mCherry-FLAG) (human) (UniProt Q9Y691); assay: pull-down + SEC; TR1 (1:1:1); three-step affinity purification: streptactin XT (Slo1), then anti-FLAG M2 resin (β2) and anti-ρ1D4 resin (β3) one after the other, in either order; eluates, input and flow-through read by dual-colour FSEC
[4] = target: hSlo1EM-TS (modified human Slo1 BK α subunit with a C-terminal twin-strep tag) (human) (UniProt Q12791); assay: as above
[5] = target: β2-RF (full-length human BK β2 subunit with C-terminal mCherry-FLAG) (human) (UniProt Q9Y691); assay: pull-down + SEC; plasmid weight ratio 1:0.2:1.8 (TR2)

Chain of β2-RF (full-length human BK β2 subunit with C-terminal mCherry-FLAG) (human) (Q9Y691 whole entry): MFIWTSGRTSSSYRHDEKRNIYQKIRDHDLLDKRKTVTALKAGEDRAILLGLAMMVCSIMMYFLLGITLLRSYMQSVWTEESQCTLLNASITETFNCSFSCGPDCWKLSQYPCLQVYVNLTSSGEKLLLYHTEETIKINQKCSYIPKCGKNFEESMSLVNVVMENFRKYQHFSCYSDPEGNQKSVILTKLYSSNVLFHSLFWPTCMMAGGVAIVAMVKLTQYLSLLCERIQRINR
Chain of β3-Gρ (full-length human BK β3a subunit with C-terminal eGFP-ρ1D4) (natural protein) (Q9NPA1 whole entry): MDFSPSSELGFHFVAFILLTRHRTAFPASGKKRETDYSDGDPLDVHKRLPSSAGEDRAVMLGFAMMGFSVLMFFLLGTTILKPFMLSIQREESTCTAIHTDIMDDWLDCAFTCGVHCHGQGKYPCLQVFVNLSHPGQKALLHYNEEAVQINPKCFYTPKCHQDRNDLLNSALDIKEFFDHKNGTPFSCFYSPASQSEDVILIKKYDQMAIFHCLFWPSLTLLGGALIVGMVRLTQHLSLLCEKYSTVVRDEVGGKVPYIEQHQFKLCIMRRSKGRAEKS
Chain of hSlo1EM-TS (modified human Slo1 BK α subunit with a C-terminal twin-strep tag) (human) (Q12791 whole entry): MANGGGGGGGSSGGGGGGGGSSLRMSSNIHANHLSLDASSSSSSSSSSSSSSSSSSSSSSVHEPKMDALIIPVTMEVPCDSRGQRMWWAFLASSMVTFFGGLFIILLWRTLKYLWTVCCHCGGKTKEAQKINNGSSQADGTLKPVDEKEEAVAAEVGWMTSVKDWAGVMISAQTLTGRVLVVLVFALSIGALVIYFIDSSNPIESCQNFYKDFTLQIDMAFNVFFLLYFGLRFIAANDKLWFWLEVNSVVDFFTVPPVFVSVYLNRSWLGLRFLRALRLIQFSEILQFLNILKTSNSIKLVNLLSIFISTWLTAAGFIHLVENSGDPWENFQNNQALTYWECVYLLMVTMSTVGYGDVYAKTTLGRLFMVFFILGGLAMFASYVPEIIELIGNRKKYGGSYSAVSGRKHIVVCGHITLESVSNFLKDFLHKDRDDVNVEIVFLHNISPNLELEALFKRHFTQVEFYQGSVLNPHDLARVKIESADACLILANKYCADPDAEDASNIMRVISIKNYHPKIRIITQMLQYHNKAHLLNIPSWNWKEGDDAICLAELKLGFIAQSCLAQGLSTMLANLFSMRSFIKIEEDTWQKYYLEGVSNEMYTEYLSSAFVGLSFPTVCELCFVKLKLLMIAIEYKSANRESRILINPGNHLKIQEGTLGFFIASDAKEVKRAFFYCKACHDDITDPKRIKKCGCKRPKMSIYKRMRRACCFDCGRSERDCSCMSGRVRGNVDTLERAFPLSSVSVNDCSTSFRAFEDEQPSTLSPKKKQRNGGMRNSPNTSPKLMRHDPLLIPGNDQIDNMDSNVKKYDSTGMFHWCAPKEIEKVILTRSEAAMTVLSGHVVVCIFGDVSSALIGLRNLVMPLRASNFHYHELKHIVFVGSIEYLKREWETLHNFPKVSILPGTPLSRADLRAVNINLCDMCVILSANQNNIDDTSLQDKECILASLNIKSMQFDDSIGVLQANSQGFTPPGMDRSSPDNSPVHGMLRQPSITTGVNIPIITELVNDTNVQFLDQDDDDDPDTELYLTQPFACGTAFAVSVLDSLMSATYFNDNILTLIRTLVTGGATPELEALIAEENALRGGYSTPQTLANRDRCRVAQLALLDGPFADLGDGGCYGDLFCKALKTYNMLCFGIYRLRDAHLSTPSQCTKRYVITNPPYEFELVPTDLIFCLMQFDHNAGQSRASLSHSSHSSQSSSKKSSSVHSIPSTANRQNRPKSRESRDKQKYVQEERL

- percent of total Slo1–β2 complexes that are ternary (hold β3 too) [1]: 58%
- stoichiometry N (β3 per 4 Slo1) [2]: 2.1
- molar ratio of β2-RF to β3-Gρ in the triply purified complex [3]: 2.33 mol/mol
- percent of total Slo1–β2 complexes that are ternary (hold β3 too) [3]: 14%
- stoichiometry N (β3 per 4 Slo1) [4]: 1.2
- molar ratio of β2-RF to β3-Gρ in the triply purified complex [5]: 0.89 mol/mol
Substance: β3-Gρ (full-length human BK β3a subunit with C-terminal eGFP-ρ1D4) (natural protein)

Reference: paper PMC12646051
